From patent US20230391828A1, “REGULATORS OF CELL DIVISION” (TECHNISCHE UNIVERSITÄT DRESDEN, priority 2020, published 2023)
Entries after “also recorded” stand apart in the source; their conditions may differ. Bridge positions count the residues as written; N and C are the ends. Square brackets hold non-standard residues; d marks the D form. 2Nal = N[C@@H](Cc1ccc2ccccc2c1)C(=O)O; R8 = C=CCCCCCC[C@@](C)(N)C(=O)O; S5 = C=CCCC[C@](C)(N)C(=O)O

Tested on: APC/C
Assay: Ubiquitinated securin (Mean ± SD)
Settings: 100 µM
Text: Table printed on a drawing sheet, Figure 6
Head of the field: Ubiquitinated securin (Mean ± SD)

Substance | Ubiquitinated securin (Mean ± SD)
Ac-cyclo(4,11)-EWWZKLEIQRXRRA-NH2 (Ac-EWW[R8]KLEIQR[S5]RRA-NH2; staple 4-11; SMILES CC[C@H](C)[C@@H]1NC(=O)[C@H](CCC(=O)O)NC(=O)[C@H](CC(C)C)NC(=O)[C@H](CCCCN)NC(=O)[C@](C)(NC(=O)[C@H](Cc2c[nH]c3ccccc23)NC(=O)[C@H](Cc2c[nH]c3ccccc23)NC(=O)[C@H](CCC(=O)O)NC(C)=O)CCCCCCC=CCCC[C@@](C)(C(=O)N[C@@H](CCCNC(=N)N)C(=O)N[C@@H](CCCNC(=N)N)C(=O)N[C@@H](C)C(N)=O)NC(=O)[C@H](CCCNC(=N)N)NC(=O)[C@H](CCC(N)=O)NC1=O) [G3-4] [listing 1 of 2 here] | 4.5 ± 7%
Ac-cyclo(4,11)-EWWZKLELQRXRRA-NH2 (Ac-EWW[R8]KLELQR[S5]RRA-NH2; staple 4-11; SMILES CC(=O)N[C@@H](CCC(=O)O)C(=O)N[C@@H](Cc1c[nH]c2ccccc12)C(=O)N[C@@H](Cc1c[nH]c2ccccc12)C(=O)N[C@]1(C)CCCCCCC=CCCC[C@@](C)(C(=O)N[C@@H](CCCNC(=N)N)C(=O)N[C@@H](CCCNC(=N)N)C(=O)N[C@@H](C)C(N)=O)NC(=O)[C@H](CCCNC(=N)N)NC(=O)[C@H](CCC(N)=O)NC(=O)[C@H](CC(C)C)NC(=O)[C@H](CCC(=O)O)NC(=O)[C@H](CC(C)C)NC(=O)[C@H](CCCCN)NC1=O) [G3-5] | 6.1 ± 7%
Ac-cyclo(5,9)-RWPQXIKDXQVRWW-NH2 (Ac-RWPQ[S5]IKD[S5]QVRWW-NH2; staple 5-9; SMILES CC[C@H](C)[C@@H]1NC(=O)[C@@](C)(NC(=O)[C@H](CCC(N)=O)NC(=O)[C@@H]2CCCN2C(=O)[C@H](Cc2c[nH]c3ccccc23)NC(=O)[C@H](CCCNC(=N)N)NC(C)=O)CCCC=CCCC[C@@](C)(C(=O)N[C@@H](CCC(N)=O)C(=O)N[C@H](C(=O)N[C@@H](CCCNC(=N)N)C(=O)N[C@@H](Cc2c[nH]c3ccccc23)C(=O)N[C@@H](Cc2c[nH]c3ccccc23)C(N)=O)C(C)C)NC(=O)[C@H](CC(=O)O)NC(=O)[C@H](CCCCN)NC1=O) [G3-3] [listing 1 of 2 here] | 5.1 ± 6%
Ac-cyclo(5,9)-RWPQXKWDXQVRRW-NH2 (Ac-RWPQ[S5]KWD[S5]QVRRW-NH2; staple 5-9; SMILES CC(=O)N[C@@H](CCCNC(=N)N)C(=O)N[C@@H](Cc1c[nH]c2ccccc12)C(=O)N1CCC[C@H]1C(=O)N[C@@H](CCC(N)=O)C(=O)N[C@@]1(C)CCCC=CCCC[C@@](C)(C(=O)N[C@@H](CCC(N)=O)C(=O)N[C@H](C(=O)N[C@@H](CCCNC(=N)N)C(=O)N[C@@H](CCCNC(=N)N)C(=O)N[C@@H](Cc2c[nH]c3ccccc23)C(N)=O)C(C)C)NC(=O)[C@H](CC(=O)O)NC(=O)[C@H](Cc2c[nH]c3ccccc23)NC(=O)[C@H](CCCCN)NC1=O) [G3-1] | 15.7 ± 8%

Biological target: T1, APC/C (Homo sapiens, UniProt Q9NYG5)
T1 construct: made in house; host or cells: SF9 insect cells (baculovirus)
Assay: In vitro APC/C ubiquitination assay driven by the E2 enzyme UBE2C, fluorophore-labelled securin substrate
Type: biochemical
Settings: 100 μM, UBE2C, reaction time 45 min
Procedure: Proteins were separated by SDS-PAGE electrophoresis using precast Bolt 4-12% Bis-Tris Plus protein gels (Thermo Fisher Scientific) and Criterion XT Bis-Tris Midi Protein Gels (Bio-Rad). In different experiments, various conditions were used: in vitro APC/C ubiquitination assays—165 V, 40 min, SDS-MES running buffer (50 mM MES, 50 mM Tris base, 0.1% SDS, 1 mM EDTA, pH 7.3; Thermo Fisher Scientific); in vitro APC/C ubiquitination assays determining KM—165V, 1 h, SDS-MOPS running buffer (50 mM MOPS, 50 mM Tris base, 0.1% SDS, 1 mM EDTA, pH 7.7; Thermo Fisher Scientific); pull-down binding assay—165 V, 35 min, SDS-MES running buffer.
APC/C-dependent ubiquitination reactions were performed at 30° C. in 30 mM HEPES pH 7.4, 175 mM NaCl, 8 mM MgCl2, 0.05% Tween-20, 1 mM DTT and 5% glycerol and contained 20 nM recombinant APC/C (note, for testing the first generation of inhibitors, APC/C and Cdc20 immunoprecipitated from mitotic HeLa K cells was used), 340 nM Cdc20, 46 nM GST-UBA1, 340 nM UBE2C (alternatively 400 nM UBE2D1, 280 nM UBE2S), 21 μM His6-ubiquitin or if it is indicated 21 μM methylated-ubiquitin (BostonBiochem), 2.6 mM ATP, 10 mM phosphocreatine and 11 μM creatine kinase. As substrates, 35 nM fluorophore-labeled ubiquitin-cyclin B and 50 nM fluorophore-labeled securin were standardly used (fluorophore IRDye 800CW (LI-COR) was used for labelling). In case of KM and kcat determination, 50, 100, 250, 500, 750, 1000, 1250, 2500 and 5000 nM fluorophore-labelled securin was used. The reaction was done in the volume of 15 μl, it was quenched after the indicated time with LDS sample buffer (Thermo Fisher Scientific) supplemented with 100 mM DTT and subjected to SDS-PAGE. Detection of fluorescently labelled substrates was done by quantitative near-infrared scanning system Odyssey.

Substance | inhibition of APC/C activity in vitro (ubiquitinated securin)
Ac-cyclo(2,11)-RCHWGPRTFWCR—NH2 (Ac-RCHWGPRTFWCR-NH2; disulfide 2-11; SMILES CC(=O)N[C@@H](CCCNC(=N)N)C(=O)N[C@H]1CSSC[C@@H](C(=O)N[C@@H](CCCNC(=N)N)C(N)=O)NC(=O)[C@H](Cc2c[nH]c3ccccc23)NC(=O)[C@H](Cc2ccccc2)NC(=O)[C@H]([C@@H](C)O)NC(=O)[C@H](CCCNC(=N)N)NC(=O)[C@@H]2CCCN2C(=O)CNC(=O)[C@H](Cc2c[nH]c3ccccc23)NC(=O)[C@H](Cc2c[nH]cn2)NC1=O) [G1-3] | the most potent molecule from items (b)-(e); also recorded: the most potent molecule from item (b)
Ac-cyclo(3,13)-THCDDPETWRWNCQRV-NH2 (Ac-THCDDPETWRWNCQRV-NH2; disulfide 3-13; SMILES CC(=O)N[C@H](C(=O)N[C@@H](Cc1c[nH]cn1)C(=O)N[C@H]1CSSC[C@@H](C(=O)N[C@@H](CCC(N)=O)C(=O)N[C@@H](CCCNC(=N)N)C(=O)N[C@H](C(N)=O)C(C)C)NC(=O)[C@H](CC(N)=O)NC(=O)[C@H](Cc2c[nH]c3ccccc23)NC(=O)[C@H](CCCNC(=N)N)NC(=O)[C@H](Cc2c[nH]c3ccccc23)NC(=O)[C@H]([C@@H](C)O)NC(=O)[C@H](CCC(=O)O)NC(=O)[C@@H]2CCCN2C(=O)[C@H](CC(=O)O)NC(=O)[C@H](CC(=O)O)NC1=O)[C@@H](C)O) [G1-7] | the most potent
cyclo(1,14)-[L 2-NaI L W K l E W E K R K p P] (cyclo(L[2Nal]LWK[dL]EWEKRK[dP]P); SMILES CC(C)C[C@@H]1NC(=O)[C@H](Cc2ccc3ccccc3c2)NC(=O)[C@H](CC(C)C)NC(=O)[C@@H]2CCCN2C(=O)[C@H]2CCCN2C(=O)[C@H](CCCCN)NC(=O)[C@H](CCCNC(=N)N)NC(=O)[C@H](CCCCN)NC(=O)[C@H](CCC(=O)O)NC(=O)[C@H](Cc2c[nH]c3ccccc23)NC(=O)[C@H](CCC(=O)O)NC(=O)[C@@H](CC(C)C)NC(=O)[C@H](CCCCN)NC(=O)[C@H](Cc2c[nH]c3ccccc23)NC1=O) [G2-4] | the most potent
cyclo(1,14)-[T F L W K W E W T K R K p P] (cyclo(TFLWKWEWTKRK[dP]P); SMILES CC(C)C[C@@H]1NC(=O)[C@H](Cc2ccccc2)NC(=O)[C@H]([C@@H](C)O)NC(=O)[C@@H]2CCCN2C(=O)[C@H]2CCCN2C(=O)[C@H](CCCCN)NC(=O)[C@H](CCCNC(=N)N)NC(=O)[C@H](CCCCN)NC(=O)[C@H]([C@@H](C)O)NC(=O)[C@H](Cc2c[nH]c3ccccc23)NC(=O)[C@H](CCC(=O)O)NC(=O)[C@H](Cc2c[nH]c3ccccc23)NC(=O)[C@H](CCCCN)NC(=O)[C@H](Cc2c[nH]c3ccccc23)NC1=O) [G2-8] | inhibit APC/C in vitro the most effectively compared to other molecules of item (f)

Same assay, conditions: 100 μM, UBE2C, reaction time 45 min, 3 independent assays

Substance | inhibition of APC/C activity in vitro compared with TAME
Ac-cyclo(4,11)-EWWZKLEIQRXRRA-NH2 (Ac-EWW[R8]KLEIQR[S5]RRA-NH2; staple 4-11; SMILES CC[C@H](C)[C@@H]1NC(=O)[C@H](CCC(=O)O)NC(=O)[C@H](CC(C)C)NC(=O)[C@H](CCCCN)NC(=O)[C@](C)(NC(=O)[C@H](Cc2c[nH]c3ccccc23)NC(=O)[C@H](Cc2c[nH]c3ccccc23)NC(=O)[C@H](CCC(=O)O)NC(C)=O)CCCCCCC=CCCC[C@@](C)(C(=O)N[C@@H](CCCNC(=N)N)C(=O)N[C@@H](CCCNC(=N)N)C(=O)N[C@@H](C)C(N)=O)NC(=O)[C@H](CCCNC(=N)N)NC(=O)[C@H](CCC(N)=O)NC1=O) [G3-4] [listing 2 of 2 here] | inhibit APC/C in vitro more efficiently than TAME
Ac-cyclo(5,9)-RWPQXIKDXQVRWW-NH2 (Ac-RWPQ[S5]IKD[S5]QVRWW-NH2; staple 5-9; SMILES CC[C@H](C)[C@@H]1NC(=O)[C@@](C)(NC(=O)[C@H](CCC(N)=O)NC(=O)[C@@H]2CCCN2C(=O)[C@H](Cc2c[nH]c3ccccc23)NC(=O)[C@H](CCCNC(=N)N)NC(C)=O)CCCC=CCCC[C@@](C)(C(=O)N[C@@H](CCC(N)=O)C(=O)N[C@H](C(=O)N[C@@H](CCCNC(=N)N)C(=O)N[C@@H](Cc2c[nH]c3ccccc23)C(=O)N[C@@H](Cc2c[nH]c3ccccc23)C(N)=O)C(C)C)NC(=O)[C@H](CC(=O)O)NC(=O)[C@H](CCCCN)NC1=O) [G3-3] [listing 2 of 2 here] | inhibit APC/C in vitro more efficiently than TAME
